Laboratory results published in patent US8283162 (AbbVie / Abbott, dated 2012).
Bridges are numbered along the chain shown (N, C = ends). Where no end group is shown, it is not given here.

B1: Gla domain Factor IX peptide (sequence 11) (peptide)
peptide: LERECMEEKCSFEEA
notes: Synthetic 15-mer homologous to PIVKA-II 13-27, with plain Glu; also called PIVKAII Gla domain (13-27) analog
B2: Gla domain Factor VII peptide (sequence 13) (peptide)
peptide: LERECKEEQCSFEEA
notes: as for B1
B3: Gla domain Protein Z peptide (sequence 16) (peptide)
peptide: LEKECYEEICVYEEA
notes: as for B1
B4: Gla domain Protein C peptide (sequence 14) (peptide)
peptide: LERECIEEICDFEEA
notes: as for B1
B5: Gla domain Protein S peptide (sequence 15) (peptide)
peptide: LERECIEELCNKEEA
notes: as for B1
B6: Gla domain Factor X peptide (sequence 12) (peptide)
peptide: LERECMEETCSYEEA
notes: as for B1
B7: monoclonal antibody 3C10 (antibody, V domains shown)
VH: EVQLVESGGDLVKPGGSLKLSCAASGFTFSSYGMSWVRQTPDKRLEWVATISRGGSSTYYPDSVKGRFTISRDNAKNNLYLQMSSLKSEDTAMYYCASLNYGNFFDYWGQGTTLTVSS
VL: DVVMTQTPLSLPVSLGDQASISCRSSQSLVHSNGNTYLHWYLQKPGQSPKLLIYKVSNRFSGVPDRFSGSGSGTDFTLKISRVEAEDLGVYFCSQNRHVPPTFGGGTKLEIKR

Molecular target: B7
Assay: FCS competition: 2 nM Alexa488-PIVKAII (13-27) premixed with 10 nM mAb 3C10, analog peptide added, overnight; D of the tracer; negative control 47±4 (no displacement), positive control 174±10

Going from B1 to B2, the “Apparent Diffusion Coefficient (D)” value rises from 48 um^2/sec to 49 um^2/sec.

Compared with B3, B4 is higher in “Apparent Diffusion Coefficient (D)” value: 51 um^2/sec for the first, 53 um^2/sec for the second.

Going from B5 to B6, the “Apparent Diffusion Coefficient (D)” value rises from 50 um^2/sec to 52 um^2/sec.

Molecular target: T1, Alexa-488 labeled PIVKAII Gla domain peptide (13-27) (disulfide 5-10; also: Alexa Fluor 488 label, site not given here)
T1 construct: also called Alexa488-PIVKAII peptide (13-27 cyc); Alexa488-PIVKA-II (13-27)
T1 peptide: LERECVEETCSYEEA
Assay: fluorescence quenching titration (FRET): 0.05 nM Alexa488 PIVKAII peptide (13-27), BHQ-labelled mAb 3C10 varied, quenching against free antibody binding sites, simple binding model

For B7, the Kd was 100 pM.
